These results are taken from paper PMC7064404.

Experiment [1] concerns the target GST-Shank3 (572-691) wild type, pre-phosphorylated by CaMKIIα at Ser685 (rat). The experiment can be described thus: pull-down.
Experiment [2] deals with GFP-tagged full length Shank3 S685D (rat) (rat). In words: co-IP.
Experiment [3] has as its target GFP-tagged full length Shank3 S685A (rat) (rat). In words: co-IP.

GST-Shank3 (572-691) wild type, pre-phosphorylated by CaMKIIα at Ser685 (rat), sequence (Q9JLU4 572-691): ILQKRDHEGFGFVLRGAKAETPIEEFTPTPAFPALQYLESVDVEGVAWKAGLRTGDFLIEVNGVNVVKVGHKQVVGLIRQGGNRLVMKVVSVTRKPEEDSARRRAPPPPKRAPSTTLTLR

“N-terminal HA-tagged ABI1 (Abelson interactor 1), full length (from UniProt Q8IZP0 1-508) (natural protein)”: the HA-ABI1 binding (HA/GST) relative to no CaMKII condition in experiment [1] stood at 148%. The percent reduction of co-immunoprecipitated HA-ABI1 (HA/GFP) compared to WT in experiment [2] turned out to be 32%; in experiment [3], 37%.
